Laboratory results reported in patent US20160237160A1 (Bayer, published 2016).

Columns and labels:
Assay in all cases: SPR, TWEAKR-Fc immobilized, IgG injected, bivalent analyte model (avidity mode);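 note: kd derived as the ratio of fitted dissociation to association rate constants, with sensorgrams corrected against a reference flow cell and a buffer blank before fitting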
[1] = target: T1, TPP-601 (MURINE-TNFRSF12Aaa28-80-hIgG1-Fc) (murine)
T1 construct: dimeric; also called murine TWEAKR Fc
Method: (§1) Sensorgrams were generated after in-line reference cell correction followed by buffer sample subtraction. The dissociation equilibrium constant (KD) was calculated based on the ratio of association (kₒₙ₁) and dissociation rated (koff1) constants, obtained by fitting sensorgrams with a bivalent analyte model using Biavaluation Software (version 4.0).

[2] = target: T2, TPP-1777 (DOG-TNFRSF12Aaa28-80-hIgG1-Fc) (dog)
T2 construct: bivalent antigen; also called dog TWEAKR Fc
Method: as §1

[3] = target: T3, TPP-599 (HUMAN-TNFRSF12Aaa28-80-hIgG1-Fc) (human)
T3 construct: dimeric; also called human TWEAKR Fc; TWEAKR-Fc
Method: as §1

[4] = target: T4, TPP-1778 (PIG-TNFRSF12Aaa28-80-hIgG1-Fc) (pig)
T4 construct: bivalent antigen; also called pig TWEAKR Fc
Method: as §1

[5] = target: T5, TPP-1846 (MAC-TNFRSF12Aaa28-80-hIgG1-Fc) (macaca fascicularis)
T5 construct: bivalent antigen; also called mac fasc TWEAKR Fc
Method: as §1

B1: TPP-2090 (antibody, human IgG1, kappa, V domains shown)
VH: EVQLLESGGGLVQPGGSLRLSCAASGFTFSPYPMIWVRQAPGKGLEWVSYISPSGGSTHYADSVKGRFTISRDNSKNTLYLQMNSLRAEDTAVYYCARGGDTYFDYFDYWGQGTLVTVSS
VL: DIQMTQSPSSLSASVGDRVTITCRASQSISGYLNWYQQKPGKAPKLLIYQASSLQSGVPSRFSGSGSGTDFTLTISSLQPEDFATYYCQQSYTSPFITFGQGTKVEIKR
notes: Human IgG1
In the case of B1, the Kd [1] is reported as 4.1 nM, the Kd [2] is reported as 6 nM and the Kd [3] is reported as 15 nM. The Kd [4] was 9.9 nM and the Kd [5] was 21.2 nM.
